In US11279747 (UNIVERSITAT ZURICH, dated 2022):

Tests used:
Assay in all cases: ELISA, receptor coated at 10 µg/mL, anti-human Fc-HRP
B57-β2m-Fc = molecular target: T1, B57-β2m-Fc (human, UniProt P61769 21-119, limits assumed)
T1 construct: HLA-Fc heavy chain with beta2m, made in CHO cells; also called HLA-β2m-Fc; control MHC-Ia heterotrimer; not shown: human IgG4 Fc (human IgG4-Fc vector, InvivoGen)
Procedure: (§1) Competition ELISA assays were performed using Maxisorp (Nunc, Switzerland) 96 well plates coated with 10 μg/mL of selected leukocyte receptors (human KIR3DL1, human KIR3DL2, human KIR3DL3, human LILRB1, human LILRB2, human PTPRJ and mouse Pirb) purchased from Creative Biomart. Receptors were incubated for ON 4° C., blocked with 5% milk powder-TBS 2 hrs. HLA_2-Fc selected constructs (A25_2-Fc, A30_2-Fc, B2705_2-Fc, B53_2-Fc, B57_2-Fc, B58_2-Fc, C08_2-F, and C12_2-Fc) and their controls (A25-β2m-Fc, A30-β2m-Fc, B2705-β2m-Fc, B53-β2m-Fc, B57-β2m-Fc, B58-β2m-Fc, C08-β2m-Fc and C12-β2m-Fc) and isotype IgG4 were added at 10 μg/mL for 2 hrs RT. HRP-conjugated antibodies against human Fc were used as detectors.

A25-β2m-Fc = molecular target: T2, A25-β2m-Fc (human, UniProt P61769 21-119, limits assumed)
T2 construct: HLA-Fc heavy chain with beta2m, made in CHO cells; also called HLA-β2m-Fc; control MHC-Ia heterotrimer; not shown: human IgG4 Fc (human IgG4-Fc vector, InvivoGen)
Procedure: as §1

B27-β2m-Fc = molecular target: T3, B27-β2m-Fc (human, UniProt P61769 21-119)
T3 construct: HLA-Fc heavy chain with beta2m, made in CHO cells; also called B2705-β2m-Fc; HLA-β2m-Fc; not shown: human IgG4 Fc (human IgG4-Fc vector, InvivoGen)
Procedure: as §1

B53-β2m-Fc = molecular target: T4, B53-β2m-Fc (human, UniProt P61769 21-119, limits assumed)
T4 construct: HLA-Fc heavy chain with beta2m, made in CHO cells; also called HLA-β2m-Fc; control MHC-Ia heterotrimer; not shown: human IgG4 Fc (human IgG4-Fc vector, InvivoGen)
Procedure: as §1

B58-β2m-Fc = molecular target: T5, B58-β2m-Fc (human, UniProt P61769 21-119, limits assumed)
T5 construct: HLA-Fc heavy chain with beta2m, made in CHO cells; also called HLA-β2m-Fc; control MHC-Ia heterotrimer; not shown: human IgG4 Fc (human IgG4-Fc vector, InvivoGen)
Procedure: as §1

A30-β2m-Fc = molecular target: T6, A30-β2m-Fc (human, UniProt P61769 21-119)
T6 construct: HLA-Fc heavy chain with beta2m, made in CHO cells; also called HLA-β2m-Fc; control MHC-Ia heterotrimer; not shown: human IgG4 Fc (human IgG4-Fc vector, InvivoGen)
Procedure: as §1

Measured: binding result

T4 sequence (P61769 21-119 limits assumed): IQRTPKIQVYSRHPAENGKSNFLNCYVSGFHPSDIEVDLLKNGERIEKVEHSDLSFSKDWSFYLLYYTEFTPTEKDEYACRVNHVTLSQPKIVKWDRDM
T2 sequence (P61769 21-119 limits assumed): as above
T3 sequence (P61769 21-119 limits assumed): as above
T6 sequence (P61769 21-119 limits assumed): as above
T1 sequence (P61769 21-119 limits assumed): as above
T5 sequence (P61769 21-119 limits assumed): as above

B1: human KIR3DL2 (receptor, UniProt P43630 22-340, looked up)
chain: LMGGQDKPFLSARPSTVVPRGGHVALQCHYRRGFNNFMLYKEDRSHVPIFHGRIFQESFIMGPVTPAHAGTYRCRGSRPHSLTGWSAPSNPLVIMVTGNHRKPSLLAHPGPLLKSGETVILQCWSDVMFEHFFLHREGISEDPSRLVGQIHDGVSKANFSIGPLMPVLAGTYRCYGSVPHSPYQLSAPSDPLDIVITGLYEKPSLSAQPGPTVQAGENVTLSCSSWSSYDIYHLSREGEAHERRLRAVPKVNRTFQADFPLGPATHGGTYRCFGSFRALPCVWSNSSDPLLVSVTGNPSSSWPSPTEPSSKSGICRHLH
notes: Bought protein coated on the ELISA plate; also called hu KIR3DL2
no binding (tested: 10 µg/mL): all assays above
